From paper PMC9481175 come the findings set out here.

For the test, the target named is His-tagged pleckstrin homology (PH) domain of AKT (AKT-PHD) (Marsupenaeus japonicus). Put plainly: ITC; CaM (70 uM) titrated into 10 uM AKT-PHD in the cell; 25°C; 0.1 M Tris-HCl pH 8.0; 19 injections; Auto-iTC200.

“recombinant GST-tagged calmodulin (CaM) (natural protein)” came in with a Kd of 726 nM and a dH of -80.1 kcal/mol.
